One assay concerns the target αvβ3 integrin (Homo sapiens, UniProt P05106+P06756). Briefly: SPR binding of purified proteins to αvβ3 integrin. The conditions noted are these: proteins immobilized; integrin 0-200 nM; equilibrium. As to the method: (§1) Determination of binding of the soluble purified proteins (M-CSFM and M-CSFRGD variants) to c-FMS and αvβ3 integrin was performed on a ProteOn XPR36 (Bio-Rad, USA). […] Unbound esters were deactivated with 1 M ethanolamine HCl at pH 8.5, and the temperature was set at 25° C. Then, the chip was rotated, and the human c-FMS soluble proteins (Sino Biological, China) were allowed to flow over the chip at 6 different concentrations (0, 12.5, 25, 50, 100 and 200 nM) at a flow rate of 50 μl/min for 490 s, followed by dissociation for 600 s in PBS+0.005% Tween (PBST). For determining αvβ3 integrin binding, the chip was regenerated using 50 mM NaOH at a flow rate of 100 μl/min and analyzed again for c-FMS binding to make sure that the chip had been regenerated. After making sure the chip is regenerated, and different concentrations of […] proteins (0, 12.5, 25, 50, 100 and 200 nM) were allowed to flow over the chip. The interactions obtained were normalized to the initial protein binding RUs to the chip surface. Then, for each concentration, the KD was obtained from the equilibrium binding phase of the sensorgram. To determine the αvβ3 integrin specificity for each M-CSFRGD variant, a new chip was loaded with different RGD binding integrins, as follows: 8.5 μg of α3β1, 8.5 μg of α4β7, 6 μg of α5β1, 8.5 μg of αvβ5, and 8.5 μg of αvβ3 integrin and 3 μg of BSA as a negative control. […]
(Surface plasmon resonance follows binding to a sensor surface in real time, without labels.)

For the next assay, the target named is αvβ5 integrin (Homo sapiens, UniProt P06756+P18084, DEL720-799). In words: SPR integrin specificity, immobilized αvβ5. It is filed as binding. Particulars: variants at 1 μM. As to the method: as §1
Chain of αvβ5 integrin (P06756 31-992 limits assumed, stated change not applied): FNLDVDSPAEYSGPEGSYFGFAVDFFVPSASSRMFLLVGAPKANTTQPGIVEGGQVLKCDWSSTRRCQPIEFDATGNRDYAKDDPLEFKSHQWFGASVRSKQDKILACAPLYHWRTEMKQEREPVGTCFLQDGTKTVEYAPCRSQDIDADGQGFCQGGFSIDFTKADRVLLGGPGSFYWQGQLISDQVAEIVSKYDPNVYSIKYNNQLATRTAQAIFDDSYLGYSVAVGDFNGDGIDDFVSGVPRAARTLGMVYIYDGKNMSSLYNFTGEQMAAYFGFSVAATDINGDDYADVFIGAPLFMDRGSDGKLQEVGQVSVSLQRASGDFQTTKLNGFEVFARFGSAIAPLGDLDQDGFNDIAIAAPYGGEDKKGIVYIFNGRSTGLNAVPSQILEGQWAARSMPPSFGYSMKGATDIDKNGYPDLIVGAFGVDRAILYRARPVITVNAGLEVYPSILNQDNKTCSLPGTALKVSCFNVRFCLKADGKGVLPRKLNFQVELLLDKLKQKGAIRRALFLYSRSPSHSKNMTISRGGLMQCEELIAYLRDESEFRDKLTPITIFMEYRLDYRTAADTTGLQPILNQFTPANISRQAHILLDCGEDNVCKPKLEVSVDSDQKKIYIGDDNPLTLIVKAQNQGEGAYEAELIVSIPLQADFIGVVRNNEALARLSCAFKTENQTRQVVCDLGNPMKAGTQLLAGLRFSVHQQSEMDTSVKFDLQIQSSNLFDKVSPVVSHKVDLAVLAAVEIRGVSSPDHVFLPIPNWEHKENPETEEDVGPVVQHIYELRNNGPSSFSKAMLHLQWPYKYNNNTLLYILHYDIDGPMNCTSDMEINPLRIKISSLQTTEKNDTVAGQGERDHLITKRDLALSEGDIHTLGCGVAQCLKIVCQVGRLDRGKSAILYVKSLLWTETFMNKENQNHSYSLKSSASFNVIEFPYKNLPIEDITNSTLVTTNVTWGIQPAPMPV
Chain of αvβ5 integrin (P18084 24-719 limits assumed, stated change not applied): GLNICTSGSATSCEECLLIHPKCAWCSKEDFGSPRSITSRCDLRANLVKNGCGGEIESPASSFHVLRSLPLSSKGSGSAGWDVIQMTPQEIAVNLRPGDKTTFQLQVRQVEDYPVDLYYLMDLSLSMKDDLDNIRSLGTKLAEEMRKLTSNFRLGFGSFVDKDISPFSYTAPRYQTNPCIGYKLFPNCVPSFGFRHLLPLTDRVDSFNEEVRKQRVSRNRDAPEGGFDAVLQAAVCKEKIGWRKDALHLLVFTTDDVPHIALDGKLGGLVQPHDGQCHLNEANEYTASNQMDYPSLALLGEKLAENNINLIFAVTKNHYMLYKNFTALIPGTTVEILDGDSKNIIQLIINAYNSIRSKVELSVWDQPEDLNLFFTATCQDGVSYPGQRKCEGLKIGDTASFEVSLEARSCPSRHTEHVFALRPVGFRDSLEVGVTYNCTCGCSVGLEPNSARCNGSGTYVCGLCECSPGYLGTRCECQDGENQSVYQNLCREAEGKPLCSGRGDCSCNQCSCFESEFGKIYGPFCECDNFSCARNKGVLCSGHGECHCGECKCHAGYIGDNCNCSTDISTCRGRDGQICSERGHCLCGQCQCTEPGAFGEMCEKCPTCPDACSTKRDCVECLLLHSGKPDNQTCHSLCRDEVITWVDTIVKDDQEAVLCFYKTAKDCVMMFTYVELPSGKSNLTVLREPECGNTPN

Chain of αvβ3 integrin (P06756 31-992 limits assumed): as the sequence (P06756 31-992 limits assumed, stated change not applied) above
Chain of αvβ3 integrin (P05106 27-718 limits assumed): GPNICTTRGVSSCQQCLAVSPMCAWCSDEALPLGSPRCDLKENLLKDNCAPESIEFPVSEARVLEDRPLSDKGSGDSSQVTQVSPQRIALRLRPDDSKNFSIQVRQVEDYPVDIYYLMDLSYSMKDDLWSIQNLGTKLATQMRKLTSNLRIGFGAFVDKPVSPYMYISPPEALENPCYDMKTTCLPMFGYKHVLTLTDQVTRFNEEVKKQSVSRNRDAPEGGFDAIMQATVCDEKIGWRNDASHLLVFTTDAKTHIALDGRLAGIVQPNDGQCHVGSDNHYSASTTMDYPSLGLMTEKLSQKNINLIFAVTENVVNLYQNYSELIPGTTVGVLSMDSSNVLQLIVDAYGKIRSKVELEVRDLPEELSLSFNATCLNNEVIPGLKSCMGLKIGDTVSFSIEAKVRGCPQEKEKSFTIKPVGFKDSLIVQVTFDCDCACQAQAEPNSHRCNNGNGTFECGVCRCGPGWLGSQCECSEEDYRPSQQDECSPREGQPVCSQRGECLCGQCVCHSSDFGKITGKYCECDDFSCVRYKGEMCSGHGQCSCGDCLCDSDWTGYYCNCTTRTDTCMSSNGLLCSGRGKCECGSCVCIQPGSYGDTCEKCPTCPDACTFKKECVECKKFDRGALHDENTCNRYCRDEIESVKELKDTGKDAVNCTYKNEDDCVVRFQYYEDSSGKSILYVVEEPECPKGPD

B1: M-CSFM: 158 amino acid M-CSF with cysteine at position 31 replaced by serine (SEQ ID NO: 2) (protein)
chain: EEVSEYCSHMIGSGHLQSLQRLIDSQMETSSQITFEFVDQEQLKDPVCYLKKAFLLVQDIMEDTMRFRDNTPNAIAIVQLQELSLRLKSCFTKDYEEHDKACVRTFYETPLQLLEKVKNVFNETKNLLDKDWNIFSKNCNNSFAECSSQGHERQSEGS
Turning to B1, the “KD to αvβ3 integrin” value with αvβ3 integrin was “did not bind”.

B2: 5.6: bispecific M-CSFRGD variant from sort five; M-CSFM loop replaced by XXXRGDXXX motif; binds c-FMS and αvβ3 integrin (protein)
chain: EEVSEYCSHMIGSGHLQSLQRLIDTYPRGDMCSITFEFVDQEQLKDPVCYLKKAFLLVQDIMEDTMRFRDNTPNAIAIVQLQELSLRLKSCFTKDYEEHDKACVRTFYETPLQLLEKVKNVFNETKNLLDKDWNIFSKNCNNSFAECSSQGHERQSEGS
modifications: left off: small tags and cut ends
Regarding B2, the “rank order of αvβ5 integrin binding” value with αvβ5 integrin was 4.24 is the best αvβ5 integrin followed by 4.22 and 5.6.

The record behind these values is patent publication US11976099B2, “Compositions and methods for treatment of bone associated diseases” (THE NATIONAL INSTITUTE FOR BIOTECHNOLOGY IN THE NEGEV LTD., priority 2016, dated 2024).
